{"source": "patent US20030157101A1", "about": "“Immunogenic ALK peptides” (priority 2001, published 2003)", "binders": {"B1": {"name": "ALK peptide p621-629 (SLTANMKEV) (peptide)", "peptide": "SLTANMKEV", "notes": "C-terminal portion of the protein; also called p621-29"}}, "molecular_target": "T1, HLA-A*0201 molecules on TAP-deficient T2 cells (human)", "T1 construct": "Peptide-receptive class I molecule on T2 cells; also called HLA-A2.1; HLA-A2", "test": "T2 cell HLA-A*0201 stabilisation, 100 uM peptide, flow cytometry with mAb BB7.2; mean of 4 experiments ± SEM", "procedure": "T2 cells were incubated with 100 μM of peptide in serum-free RPMI 1640 supplemented with 5 μg/ml of human β₂m (Fluka, Buchs, Germany) for 18 hrs at 37° C."}
{"binder": "B1", "values": [{"measurement": "FI (Fluorescence Index)", "result": "3.5 ratio (sample / irrelevant-peptide control)"}]}
